Each block holds one substance with its values, some of them ahead of it.
Key:
Assay in all cases: cell-based or functional assay
[1] = biological target: FKBP.FRB.ΔC9 expressed from pBP1311-pSFG.FKBP.FRB.ΔC9.T2A-ΔCD19
[2] = biological target: FRB.FKBP.ΔC9 expressed from pBP1310-pSFG.FRB.FKBP.ΔC9.T2A-ΔCD19
[3] = biological target: ΔMyr.iMC (MyD88.CD40.Fv'.Fv) expressed from pBP0606-pSFG-k-ΔMyr.iMC.2A-ΔCD19 (human)
[4] = biological target: CD19-CAR-FRBl2 (1st generation CD19-CAR fused to two tandem FRBl domains, co-expressed with iCaspase9 from iC9-CAR(19).FRBl2)
[5] = biological target: Her2-CAR-FRBl2 (1st generation Her2-CAR fused to two tandem FRBl domains)

FKBP.FRB.ΔC9 expressed from pBP1311-pSFG.FKBP.FRB.ΔC9.T2A-ΔCD19, sequence (P55211 other isoform, or with tags, fused parts or gaps, stated change not applied): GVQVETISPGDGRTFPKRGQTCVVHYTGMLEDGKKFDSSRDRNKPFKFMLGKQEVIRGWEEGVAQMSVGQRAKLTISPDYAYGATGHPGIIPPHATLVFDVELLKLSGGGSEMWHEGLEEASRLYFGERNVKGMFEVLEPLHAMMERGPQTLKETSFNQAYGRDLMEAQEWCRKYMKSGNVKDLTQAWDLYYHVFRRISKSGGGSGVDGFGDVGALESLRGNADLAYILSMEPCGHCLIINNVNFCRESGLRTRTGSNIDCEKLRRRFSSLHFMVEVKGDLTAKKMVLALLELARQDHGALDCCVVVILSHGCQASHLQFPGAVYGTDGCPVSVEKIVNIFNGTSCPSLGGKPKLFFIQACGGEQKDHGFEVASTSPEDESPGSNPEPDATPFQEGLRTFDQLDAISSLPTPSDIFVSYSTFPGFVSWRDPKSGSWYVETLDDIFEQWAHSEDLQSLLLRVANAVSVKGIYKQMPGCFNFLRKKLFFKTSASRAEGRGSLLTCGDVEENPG
ΔMyr.iMC (MyD88.CD40.Fv'.Fv) expressed from pBP0606-pSFG-k-ΔMyr.iMC.2A-ΔCD19 (human), sequence (main, as listed by the source mutant): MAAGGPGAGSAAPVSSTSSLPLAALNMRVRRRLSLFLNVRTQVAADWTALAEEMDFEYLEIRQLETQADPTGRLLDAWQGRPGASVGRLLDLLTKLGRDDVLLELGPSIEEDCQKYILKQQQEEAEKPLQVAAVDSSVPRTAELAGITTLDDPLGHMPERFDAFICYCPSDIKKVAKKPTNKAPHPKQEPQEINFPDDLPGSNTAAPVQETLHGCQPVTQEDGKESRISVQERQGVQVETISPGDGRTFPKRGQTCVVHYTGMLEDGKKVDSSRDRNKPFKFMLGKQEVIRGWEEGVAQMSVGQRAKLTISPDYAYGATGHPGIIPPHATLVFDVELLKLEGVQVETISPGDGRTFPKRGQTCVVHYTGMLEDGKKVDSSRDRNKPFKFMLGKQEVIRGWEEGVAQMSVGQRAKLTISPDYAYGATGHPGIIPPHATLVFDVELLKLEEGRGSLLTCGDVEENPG
FRB.FKBP.ΔC9 expressed from pBP1310-pSFG.FRB.FKBP.ΔC9.T2A-ΔCD19, sequence (P55211 other isoform, or with tags, fused parts or gaps, stated change not applied): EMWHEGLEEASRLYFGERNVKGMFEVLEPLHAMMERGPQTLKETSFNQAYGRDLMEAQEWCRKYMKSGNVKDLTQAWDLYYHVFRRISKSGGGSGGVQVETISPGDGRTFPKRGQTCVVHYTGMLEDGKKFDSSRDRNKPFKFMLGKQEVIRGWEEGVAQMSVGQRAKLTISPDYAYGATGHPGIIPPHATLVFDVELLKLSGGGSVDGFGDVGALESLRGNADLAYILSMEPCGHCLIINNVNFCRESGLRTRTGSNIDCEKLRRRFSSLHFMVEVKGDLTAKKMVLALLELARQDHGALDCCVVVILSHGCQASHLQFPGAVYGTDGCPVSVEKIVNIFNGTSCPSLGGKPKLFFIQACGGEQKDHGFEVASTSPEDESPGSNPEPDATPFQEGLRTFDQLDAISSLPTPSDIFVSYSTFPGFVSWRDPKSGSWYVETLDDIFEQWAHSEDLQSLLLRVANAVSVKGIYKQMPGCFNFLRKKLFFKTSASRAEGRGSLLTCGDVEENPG
FRBL2.Caspase9 expressed from pBP0668-pSFG-FRBlx2.Caspase9.2A-Q.8stm.CD3zeta, sequence (chain, part): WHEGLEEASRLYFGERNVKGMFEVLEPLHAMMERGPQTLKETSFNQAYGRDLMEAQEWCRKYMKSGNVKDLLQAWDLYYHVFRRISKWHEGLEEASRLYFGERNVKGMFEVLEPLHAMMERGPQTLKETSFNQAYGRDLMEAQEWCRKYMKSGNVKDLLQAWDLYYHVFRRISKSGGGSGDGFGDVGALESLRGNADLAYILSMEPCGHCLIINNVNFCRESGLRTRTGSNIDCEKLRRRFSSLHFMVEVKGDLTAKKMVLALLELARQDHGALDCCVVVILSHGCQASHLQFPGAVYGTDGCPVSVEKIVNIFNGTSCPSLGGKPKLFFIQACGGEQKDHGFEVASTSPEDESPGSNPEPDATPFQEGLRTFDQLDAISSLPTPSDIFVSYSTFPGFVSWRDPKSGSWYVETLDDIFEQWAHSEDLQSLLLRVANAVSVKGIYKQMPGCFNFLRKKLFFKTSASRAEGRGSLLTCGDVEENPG

rapamycin concentration (small molecule) at which the construct was still highly active, caspase 3/7 and SRα-SEAP assays in transfected 293 cells [1]: 100 pM
Substance: FKBP.FRB.ΔC9 expressed from pBP1311-pSFG.FKBP.FRB.ΔC9.T2A-ΔCD19

rapamycin concentration (small molecule) at which the construct was still highly active, caspase 3/7 and SRα-SEAP assays in transfected 293 cells [2]: 100 pM
Substance: FRB.FKBP.ΔC9 expressed from pBP1310-pSFG.FRB.FKBP.ΔC9.T2A-ΔCD19

rapamycin concentration at which doubly transduced (CD34+CD19+) primary T cells were eliminated, flow cytometry after 24 hours [3]: 2 nM
Substance: FRBL2.Caspase9 expressed from pBP0668-pSFG-FRBlx2.Caspase9.2A-Q.8stm.CD3zeta

SRα-SEAP reporter activity of transfected 293 cells after overnight rapamycin (small-molecule heterodimerizer) [4]: 50 % decrease | SRα-SEAP reporter activity of transfected 293 cells after overnight rapamycin (small-molecule heterodimerizer) [5]: 50 % decrease
Substance: iCaspase-9 as used in Example 17
